# Results as given in patent US20150307863A1.
# Biological target: type IV collagen
# Assay: cell-based or functional assay
row,"median NOD (numbers of disruption), saphenous vein bleeding model in hemophilia B mice 7 days after injection [disruptions]",Substance
1,14,wild type Factor IX (human FIX) (from UniProt P00740 47-461) (enzyme)
2,19,Factor IX K5R variant (from UniProt P00740 47-461) (enzyme)
3,8,Factor IX K5A variant (from UniProt P00740 47-461) (enzyme)
